± gives the uncertainty stated by the source.
Test: self-splicing fitness, log relative to wild type (ln ratio); higher = more splicing; Tetrahymena group I intron in knt gene, E. coli kanamycin selection, DiMSum; sequences stand for … in CUCUCU…GGAGGGAAAAGUUAUCAGGCAUGCACCUGGUAGCUAGUCUUUAAACCAAUAGAUUGCAUCGGUUUAAAAGGCAAGACCGUCAAAUUGCGGGAAAGGGGUCAACAGCCGUUCAGUACCAAGUCUCAGGGGAAACUUUGAGAUGGCCUUGCAAAGGGUAUGGUAAUAAGCUGACGGACAUGGUCCUAACCACGCAGCCAAGUCCUAAGUCAACAGAUCUUCUGUUGAUAUGGAUGCAGUUCACAGACUAAAUGUCGGUCGGGGAAGAUGUAUUCUUCUCAUAAGAUAUAGUCGGACCUCUCCUUAAUGGGAGCUAGCGGAUGAAGUGAUGCAACACUGGAGCCGCUGGGAACUAAUUUGUAUGCGAAAGUAUAUUGAUUAGUUUUGGAGUACUCGUGGUCG
Procedure, shortened: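 Library with all eight P1ex-region intron nucleotides randomised, intron inside the knt kanamycin-resistance gene on pET-22b(+), in E. coli BL21(DE3). Cells grew overnight at 37°C or 30°C on LB agar with or without 25 μg/mL kanamycin (plus 100 μg/mL carbenicillin, 50 μM IPTG, 0.2% rhamnose), in six replicate transformations. Pooled colonies were amplicon-sequenced on Illumina HiSeq 2500. DiMSum fitness is the error-weighted combination of wild-type-normalised replicate fold changes, kanamycin versus none.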

| Sequence | self-splicing fitness (ln) (30 °C) | self-splicing fitness (ln) (37 °C) |
| --- | --- | --- |
| AAAAAGCAAUAUUACGAGAC | -3.02 ± 0.19 | -2.47 ± 0.24 |
| AAAAAGCAAUAUUACGAGGU | -4.25 ± 0.29 | -3.5 ± 0.23 |
| AAAAAGCAAUAUUACGAUAA | -1.03 ± 0.074 | -1.1 ± 0.093 |
| AAAAAGCAAUAUUACGCGGU | -2.38 ± 0.13 | -0.538 ± 0.11 |
| AAAAAGCAAUAUUACGCUGA | -4.19 ± 0.34 | -1.7 ± 0.17 |
| AAAAAGCAAUAUUACGCUGC | -3.34 ± 0.4 |  |
| AAAAAGCAAUAUUACGGAAG | -2.88 ± 0.16 | -1.38 ± 0.14 |
| AAAAAGCAAUAUUACGGCAC | -0.499 ± 0.076 | -0.593 ± 0.1 |
| AAAAAGCAAUAUUACGGCCG | -0.279 ± 0.092 | 0.159 ± 0.13 |
| AAAAAGCAAUAUUACGGCUA | -0.166 ± 0.089 | 0.116 ± 0.11 |
| AAAAAGCAAUAUUACGGGGC | -3.33 ± 0.16 | -2.43 ± 0.18 |
| AAAAAGCAAUAUUACGGGUC | -3.39 ± 0.16 | -2.7 ± 0.26 |
| AAAAAGCAAUAUUACGGUAU | -2.2 ± 0.08 | -0.966 ± 0.08 |
| AAAAAGCAAUAUUACGGUCU | -0.167 ± 0.057 | -0.0164 ± 0.073 |
| AAAAAGCAAUAUUACGGUUU | -0.478 ± 0.05 | -0.225 ± 0.064 |
| AAAAAGCAAUAUUACGUCAU | -2.2 ± 0.08 | -1.14 ± 0.092 |
| AAAAAGCAAUAUUACGUCCG | -1.05 ± 0.11 | -0.195 ± 0.13 |
| AAACAGCAAUAUUACGAAAU | -2.72 ± 0.13 | -1.48 ± 0.13 |
| AAACAGCAAUAUUACGAACU | -0.252 ± 0.065 | -0.265 ± 0.077 |
| AAACAGCAAUAUUACGAAGU | -3.41 ± 0.2 | -2.21 ± 0.17 |
| AAACAGCAAUAUUACGAAUA | -2.67 ± 0.14 | -1.1 ± 0.084 |
| AAACAGCAAUAUUACGACAG | -1.5 ± 0.082 | -1.25 ± 0.1 |
| AAACAGCAAUAUUACGACCU | -0.0846 ± 0.062 | -0.604 ± 0.076 |
| AAACAGCAAUAUUACGAUAU | -1.82 ± 0.08 | -0.63 ± 0.097 |
| AAACAGCAAUAUUACGCAAU | -2.97 ± 0.081 | -1.4 ± 0.076 |
| AAACAGCAAUAUUACGGACA | -1.54 ± 0.092 | -1.1 ± 0.096 |

| Sequence | self-splicing fitness (ln) (30 °C) | self-splicing fitness (ln) (37 °C) |
| --- | --- | --- |
| AAACAGCAAUAUUACGGAGC | -3.7 ± 0.28 | -2.75 ± 0.22 |
| AAACAGCAAUAUUACGGCGA | -0.923 ± 0.074 | -0.737 ± 0.085 |
| AAACAGCAAUAUUACGGCUG | -3.47 ± 0.25 | -2.07 ± 0.23 |
| AAACAGCAAUAUUACGGGUA | -2.58 ± 0.093 | -1.31 ± 0.072 |
| AAACAGCAAUAUUACGUAAU | -1.79 ± 0.051 | -0.491 ± 0.064 |
| AAACAGCAAUAUUACGUACC | -1.52 ± 0.11 | -0.543 ± 0.12 |
| AAACAGCAAUAUUACGUACU | -0.273 ± 0.06 | -0.159 ± 0.073 |
| AAACAGCAAUAUUACGUGGC | -3.05 ± 0.2 | -2.35 ± 0.14 |
| AAAGAGCAAUAUUACGACCA | -1.98 ± 0.18 |  |
| AAAGAGCAAUAUUACGAGCG | -2.08 ± 0.21 | -2.17 ± 0.24 |
| AAAGAGCAAUAUUACGAGGA | -2.26 ± 0.31 | -2.6 ± 0.27 |
| AAAGAGCAAUAUUACGAGUA | -3.87 ± 0.46 | -2.58 ± 0.28 |
| AAAGAGCAAUAUUACGAGUU | -3 ± 0.17 | -1.92 ± 0.2 |
| AAAGAGCAAUAUUACGAUAC |  | -2.18 ± 0.41 |
| AAAGAGCAAUAUUACGCCAC | -3.45 ± 0.49 | -2.83 ± 0.47 |
| AAAGAGCAAUAUUACGCGAA | -2.83 ± 0.2 | -1.46 ± 0.24 |
| AAAGAGCAAUAUUACGCGGG | -4.16 ± 0.28 | -3.54 ± 0.33 |
| AAAGAGCAAUAUUACGCUCG | -2.17 ± 0.12 | -0.963 ± 0.12 |
| AAAGAGCAAUAUUACGGCUU | -1.05 ± 0.11 | -0.397 ± 0.14 |
| AAAGAGCAAUAUUACGGUAU | -3.02 ± 0.17 | -2.28 ± 0.15 |
| AAAGAGCAAUAUUACGUAAG | -3.48 ± 0.18 | -2.57 ± 0.22 |
| AAAGAGCAAUAUUACGUACC | -3.04 ± 0.19 | -2.03 ± 0.28 |
| AAAGAGCAAUAUUACGUCUU | -2.22 ± 0.091 | -1.41 ± 0.1 |
| AAAGAGCAAUAUUACGUUUG | -2.74 ± 0.21 | -1.77 ± 0.22 |
| AAAUAGCAAUAUUACGAAUA | -1.7 ± 0.16 | -1.18 ± 0.15 |
| AAAUAGCAAUAUUACGAAUU | -1.65 ± 0.1 | -0.368 ± 0.12 |

| Sequence | self-splicing fitness (ln) (30 °C) | self-splicing fitness (ln) (37 °C) |
| --- | --- | --- |
| AAAUAGCAAUAUUACGACGG | -0.995 ± 0.1 | -0.783 ± 0.16 |
| AAAUAGCAAUAUUACGAGUC | -3.89 ± 0.33 | -2.2 ± 0.36 |
| AAAUAGCAAUAUUACGAUUG | -2.16 ± 0.15 | -1.31 ± 0.18 |
| AAAUAGCAAUAUUACGCACG | -1.59 ± 0.13 | -0.271 ± 0.12 |
| AAAUAGCAAUAUUACGCAGG | -1.68 ± 0.12 | -1.65 ± 0.11 |
| AAAUAGCAAUAUUACGCAUC | -3.65 ± 0.47 | -0.111 ± 0.22 |
| AAAUAGCAAUAUUACGCCGA | -2.41 ± 0.19 | -0.837 ± 0.17 |
| AAAUAGCAAUAUUACGCGGG | -3.02 ± 0.19 | -1.23 ± 0.12 |
| AAAUAGCAAUAUUACGGAGA | -1.86 ± 0.23 | -2.11 ± 0.3 |
| AAAUAGCAAUAUUACGGAUC | -1.18 ± 0.11 | -0.569 ± 0.15 |
| AAAUAGCAAUAUUACGGAUG | -2.5 ± 0.16 | -0.984 ± 0.12 |
| AAAUAGCAAUAUUACGGCAA | -0.542 ± 0.071 | 0.146 ± 0.075 |
| AAAUAGCAAUAUUACGGCCA | -0.522 ± 0.15 | -0.523 ± 0.18 |
| AAAUAGCAAUAUUACGGGAU | -2.7 ± 0.099 | -1.03 ± 0.11 |
| AAAUAGCAAUAUUACGGGGA | -3.71 ± 0.25 | -2.86 ± 0.19 |
| AAAUAGCAAUAUUACGGGGC | -3.72 ± 0.32 | -2.34 ± 0.29 |
| AAAUAGCAAUAUUACGGGUG | -1.49 ± 0.11 | -1.65 ± 0.14 |
| AAAUAGCAAUAUUACGGUGA | -1.69 ± 0.13 | -0.521 ± 0.11 |
| AAAUAGCAAUAUUACGUAGU | -3.11 ± 0.099 | -1.79 ± 0.095 |
| AAAUAGCAAUAUUACGUAUA | -1.63 ± 0.12 | -0.558 ± 0.12 |
| AAAUAGCAAUAUUACGUGGC | -4.1 ± 0.28 | -1.43 ± 0.2 |
| AAAUAGCAAUAUUACGUUUG | -2.04 ± 0.1 | -1.49 ± 0.11 |
| AACAAGCAAUAUUACGAAUA | -1.97 ± 0.1 | -1.24 ± 0.11 |
| AACAAGCAAUAUUACGACCG | -0.711 ± 0.12 | 0.209 ± 0.16 |
| AACAAGCAAUAUUACGACCU | 0.219 ± 0.086 | 0.125 ± 0.1 |

— the supplement of paper PMC7877785
